Experimental data: article PMC10397247

Assays:
P7mS = molecular target: T1, P7mS; experiment: two-hybrid library CC1; conditions: mean of both orientations;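 note: natural log of median RNA to DNA barcode read ratio; higher means stronger binding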
T1 chain: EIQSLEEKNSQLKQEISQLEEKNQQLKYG

P6SC1 = molecular target: T2, P6SC1; experiment: two-hybrid library CC1; conditions: mean of both orientations;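 note: natural log of median RNA to DNA barcode read ratio; higher means stronger binding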
T2 chain: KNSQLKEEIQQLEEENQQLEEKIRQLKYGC

P6mS = molecular target: T3, P6mS; experiment: two-hybrid library CC1; conditions: mean of both orientations;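 note: natural log of median RNA to DNA barcode read ratio; higher means stronger binding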
T3 chain: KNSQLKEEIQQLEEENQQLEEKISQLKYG

P8mS = molecular target: T4, P8mS; experiment: two-hybrid library CC1; conditions: mean of both orientations;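 note: natural log of median RNA to DNA barcode read ratio; higher means stronger binding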
T4 chain: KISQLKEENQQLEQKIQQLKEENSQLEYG

P9 = molecular target: T5, P9; experiment: two-hybrid library CC1; conditions: mean of both orientations;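 note: natural log of median RNA to DNA barcode read ratio; higher means stronger binding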
T5 chain: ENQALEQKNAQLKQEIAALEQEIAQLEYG

P8 = molecular target: T6, P8; experiment: two-hybrid library CC1; conditions: mean of both orientations;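 note: natural log of median RNA to DNA barcode read ratio; higher means stronger binding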
T6 chain: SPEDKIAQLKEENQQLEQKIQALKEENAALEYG

P6SC2 = molecular target: T7, P6SC2; experiment: two-hybrid library CC1; conditions: mean of both orientations
T7 chain: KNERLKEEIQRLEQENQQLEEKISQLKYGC

P7 = molecular target: T8, P7; experiment: two-hybrid library CC1; conditions: mean of both orientations
T8 chain: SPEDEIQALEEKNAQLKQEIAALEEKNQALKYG

P6 = molecular target: T9, P6; experiment: two-hybrid library CC1; conditions: mean of both orientations
T9 chain: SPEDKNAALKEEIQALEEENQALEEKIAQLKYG

P5mS = molecular target: T10, P5mS; experiment: two-hybrid library CC1
T10 chain: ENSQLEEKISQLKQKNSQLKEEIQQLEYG

APC3323-AA = molecular target: T11, APC3323-AA; experiment: two-hybrid library CCmax; conditions: mean of both orientations
T11 chain: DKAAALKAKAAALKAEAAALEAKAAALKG

APC5009-AA = molecular target: T12, APC5009-AA; experiment: two-hybrid library CCmax; conditions: mean of both orientations
T12 chain: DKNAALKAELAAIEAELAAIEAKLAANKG

APC7524-AA = molecular target: T13, APC7524-AA; experiment: two-hybrid library CCmax; conditions: mean of both orientations
T13 chain: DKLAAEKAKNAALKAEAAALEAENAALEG

APC2811-AA = molecular target: T14, APC2811-AA; experiment: two-hybrid library CCmax
T14 chain: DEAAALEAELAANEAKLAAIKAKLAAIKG

APC9806-AA = molecular target: T15, APC9806-AA; experiment: two-hybrid library CCmax; conditions: mean of both orientations
T15 chain: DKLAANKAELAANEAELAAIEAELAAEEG

APC6088-AA = molecular target: T16, APC6088-AA; experiment: two-hybrid library CCmax; conditions: mean of both orientations
T16 chain: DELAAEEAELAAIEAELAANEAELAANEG

APC9291-AA = molecular target: T17, APC9291-AA; experiment: two-hybrid library CCmax; conditions: mean of both orientations
T17 chain: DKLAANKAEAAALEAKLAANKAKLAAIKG

APC3354-AA = molecular target: T18, APC3354-AA; experiment: two-hybrid library CCmax; conditions: mean of both orientations
T18 chain: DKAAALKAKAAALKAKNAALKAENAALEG

APC8516-AA = molecular target: T19, APC8516-AA; experiment: two-hybrid library CCmax; conditions: mean of both orientations
T19 chain: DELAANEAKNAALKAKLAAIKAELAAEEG

APC4336-AA = molecular target: T20, APC4336-AA; experiment: two-hybrid library CCmax; conditions: mean of both orientations
T20 chain: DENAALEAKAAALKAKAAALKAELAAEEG

APC3265-AA = molecular target: T21, APC3265-AA; experiment: two-hybrid library CCmax; conditions: mean of both orientations
T21 chain: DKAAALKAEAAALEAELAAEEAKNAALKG

APC3881-AA = molecular target: T22, APC3881-AA; experiment: two-hybrid library CCmax; conditions: mean of both orientations
T22 chain: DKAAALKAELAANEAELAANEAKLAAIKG

APC9141-AA = molecular target: T23, APC9141-AA; experiment: two-hybrid library CCmax; conditions: mean of both orientations
T23 chain: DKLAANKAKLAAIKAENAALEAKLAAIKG

APC8401-AA = molecular target: T24, APC8401-AA; experiment: two-hybrid library CCmax; conditions: mean of both orientations
T24 chain: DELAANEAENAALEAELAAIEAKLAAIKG

APC4100-AA = molecular target: T25, APC4100-AA; experiment: two-hybrid library CCmax; conditions: mean of both orientations
T25 chain: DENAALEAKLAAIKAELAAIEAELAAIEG

APC2981-AA = molecular target: T26, APC2981-AA; experiment: two-hybrid library CCmax; conditions: mean of both orientations
T26 chain: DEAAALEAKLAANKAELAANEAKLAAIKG

APC9182-AA = molecular target: T27, APC9182-AA; experiment: two-hybrid library CCmax; conditions: mean of both orientations
T27 chain: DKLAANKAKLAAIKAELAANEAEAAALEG

APC5531-AA = molecular target: T28, APC5531-AA; experiment: two-hybrid library CCmax; conditions: mean of both orientations
T28 chain: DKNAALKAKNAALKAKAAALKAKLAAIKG

APC542-AA = molecular target: T29, APC542-AA; experiment: two-hybrid library CCmax; conditions: mean of both orientations
T29 chain: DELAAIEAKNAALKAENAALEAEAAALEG

ENSQLEEKISQLKQKNSQLKEEIQQLEYG [P5mS]
interaction score (P7mS): -2.67
interaction score (P6SC1): 0.104
interaction score (P6mS): -0.205
interaction score (P8mS): -2.74
interaction score (P9): -2.67
interaction score (P8): -2.02
interaction score (P6SC2): 0.207
interaction score (P7): -2.73
interaction score (P6): 0.124
interaction score (P5mS): -3.02

DEAAALEAELAANEAKLAAIKAKLAAIKG [APC2811-AA]
interaction score (APC3323-AA): -1.68
interaction score (APC5009-AA): -0.812
interaction score (APC7524-AA): -1.75
interaction score (APC2811-AA): -0.415
interaction score (APC9806-AA): -1.74
interaction score (APC6088-AA): -1.51
interaction score (APC9291-AA): -1.78
interaction score (APC3354-AA): -1.67
interaction score (APC8516-AA): -1.65
interaction score (APC4336-AA): -1.61
interaction score (APC3265-AA): -1.3
interaction score (APC3881-AA): -1.68
interaction score (APC9141-AA): -1.29
interaction score (APC8401-AA): -1.58
interaction score (APC4100-AA): 0.341
interaction score (APC2981-AA): -1.57
interaction score (APC9182-AA): -1.35
interaction score (APC5531-AA): -1.88
interaction score (APC542-AA): -1.59
